As a reminder, the Kd is the free concentration of one partner at which half of the binding sites on the other are occupied at equilibrium, for simple one-to-one binding.

The source of these data is patent US20220306759A1 (CYTOMX THERAPEUTICS, published 2022).

Assay [1] addresses T1, human CD71 (transferrin receptor protein 1, TfR1) on human cell lines (human, UniProt P02786 1-760).
T1 construct: whole, on cells; also called huCD71
Description: FACS on FaDu cells. As to the method: (§1) In this study, the binding of the antibodies of the present disclosure to the indicated cell lines were performed using a standard FACS labelling method.

Assay [2] deals with T1, human CD71 (transferrin receptor …). Put plainly: FACS on MDA MB 231 cells. As to the method: as §1
The target is the same in assay [3]. Put plainly: FACS on MDA MB 231 cells. As to the method: as §1
This is another data set of the same source.

Assay [4] addresses T2, recombinant human CD71 protein (human, UniProt P02786 89-760).
T2 construct: also called recombinant CD71
Put plainly: ELISA, 1 µg/mL recombinant human CD71. As to the method:
(§2) The amount of bound antibody was detected by incubation and detection by goat anti-human antibody conjugated to horseradish peroxidase and Ultra TMB (Thermo Fisher Scientific) detection.
For orientation: ELISA stands for enzyme-linked immunosorbent assay.

Assay [5] concerns the target T1, human CD71 (transferrin receptor …). Put plainly: FACS on HT29 cells. As to the method:
as §1

Assay [6] has the same target. Description: FACS on H292 cells. As to the method:
as §1

Assay [7] concerns the target recombinant mouse CD71 (mouse, UniProt Q62351 89-763, limits assumed). Description: ELISA, recombinant CD71 (1 µg/mL) on plates, anti-human IgG-HRP.
Assay [8] has as its target T1, human CD71 (transferrin receptor …). Description: FACS on BxPC3 cells.
The target is the same in assay [9]. Description: FACS on H292 cells. As to the method:
In this study, the binding of the antibodies of the present disclosure to the indicated cell lines were performed using a standard FACS labelling method. […] These activatable antibodies include the light chain of the correspondingly named sequence listed above in Table C. The cells were labeled with the indicated test article at the indicated concentrations and subsequently detected with an Alexa Fluor 647 labeled goat anti-human IgG secondary antibody.
This is another data set of the same source.

Assay [10] has as its target T3, cynomolgus monkey CD71 on primary kidney epithelial cells (cynomolgus monkey, UniProt H9EXL1 1-760 (rhesus entry)).
T3 construct: whole, on cells; also called cyno CD71
Put plainly: FACS on cynomolgus monkey primary kidney epithelial cells. As to the method: In this study, the binding of the antibody of the present disclosure to the cells were performed using a standard FACS labelling method.

The target in assay [11] is T1, human CD71 (transferrin receptor …). Description: FACS on BxPC3 cells. As to the method:
as §1
The source holds these as a separate data set.

Assay [12] has the same target. Put plainly: FACS on DMS 153 cells. As to the method:
(§3) In this study, the binding of the antibodies and ADCs of the present disclosure to the indicated cell lines were performed using a standard FACS labelling method.

Assay [13] shares this target. Description: FACS on HCC1806 cells. As to the method:
as §1

Assay [14] deals with T2, recombinant human CD71 protein. Put plainly: ELISA, 1 µg/mL CD71 on nickel plates.
For assay [15], the target named is T1, human CD71 (transferrin receptor …). Put plainly: FACS on DMS 79 cells. The method, then: as §3
Assay [16] addresses T2, recombinant human CD71 protein. Put plainly: ELISA, 1 µg/mL CD71 on copper or nickel plates. The method, then: as §2
The target is the same in assay [17]. Description: ELISA, 1 µg/mL recombinant human CD71 (second value). As to the method: as §2

T1 sequence (P02786 whole entry): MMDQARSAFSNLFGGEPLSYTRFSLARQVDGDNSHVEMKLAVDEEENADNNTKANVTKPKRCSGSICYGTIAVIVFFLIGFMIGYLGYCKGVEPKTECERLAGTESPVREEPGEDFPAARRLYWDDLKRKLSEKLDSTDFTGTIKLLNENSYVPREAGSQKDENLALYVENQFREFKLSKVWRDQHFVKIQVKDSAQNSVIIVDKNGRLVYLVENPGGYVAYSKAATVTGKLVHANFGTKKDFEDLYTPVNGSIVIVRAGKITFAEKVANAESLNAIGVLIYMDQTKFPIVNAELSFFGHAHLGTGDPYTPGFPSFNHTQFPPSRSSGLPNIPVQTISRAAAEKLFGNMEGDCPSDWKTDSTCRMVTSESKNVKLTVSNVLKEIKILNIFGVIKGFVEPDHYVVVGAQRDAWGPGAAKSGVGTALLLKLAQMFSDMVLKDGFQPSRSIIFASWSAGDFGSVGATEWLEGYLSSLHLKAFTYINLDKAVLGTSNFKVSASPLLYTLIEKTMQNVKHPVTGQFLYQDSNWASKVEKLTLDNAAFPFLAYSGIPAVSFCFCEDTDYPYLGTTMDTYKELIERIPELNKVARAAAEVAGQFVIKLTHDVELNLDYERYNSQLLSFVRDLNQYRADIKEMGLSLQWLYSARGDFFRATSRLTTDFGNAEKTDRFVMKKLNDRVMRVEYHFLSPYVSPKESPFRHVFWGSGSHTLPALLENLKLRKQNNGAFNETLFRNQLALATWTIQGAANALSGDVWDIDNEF
T2 sequence (P02786 89-760 limits assumed): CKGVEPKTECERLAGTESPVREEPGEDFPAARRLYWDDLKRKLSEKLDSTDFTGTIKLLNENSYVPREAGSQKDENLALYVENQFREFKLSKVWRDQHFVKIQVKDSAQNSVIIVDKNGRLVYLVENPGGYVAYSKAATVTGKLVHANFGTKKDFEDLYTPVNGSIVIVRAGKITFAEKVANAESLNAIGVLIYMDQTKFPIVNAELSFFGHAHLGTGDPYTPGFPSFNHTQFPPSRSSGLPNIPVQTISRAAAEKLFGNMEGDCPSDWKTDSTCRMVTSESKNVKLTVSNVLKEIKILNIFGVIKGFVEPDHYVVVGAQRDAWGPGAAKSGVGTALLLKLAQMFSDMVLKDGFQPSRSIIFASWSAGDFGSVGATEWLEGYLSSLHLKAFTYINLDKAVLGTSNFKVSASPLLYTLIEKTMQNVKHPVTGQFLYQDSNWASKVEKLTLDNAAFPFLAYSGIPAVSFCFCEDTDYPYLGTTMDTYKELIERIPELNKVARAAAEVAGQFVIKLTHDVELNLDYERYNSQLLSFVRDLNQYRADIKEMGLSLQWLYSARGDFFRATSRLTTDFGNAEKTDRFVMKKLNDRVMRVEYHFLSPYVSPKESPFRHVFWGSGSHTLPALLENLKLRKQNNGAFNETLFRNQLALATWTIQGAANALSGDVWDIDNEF
T3 sequence (chain, as listed by the source): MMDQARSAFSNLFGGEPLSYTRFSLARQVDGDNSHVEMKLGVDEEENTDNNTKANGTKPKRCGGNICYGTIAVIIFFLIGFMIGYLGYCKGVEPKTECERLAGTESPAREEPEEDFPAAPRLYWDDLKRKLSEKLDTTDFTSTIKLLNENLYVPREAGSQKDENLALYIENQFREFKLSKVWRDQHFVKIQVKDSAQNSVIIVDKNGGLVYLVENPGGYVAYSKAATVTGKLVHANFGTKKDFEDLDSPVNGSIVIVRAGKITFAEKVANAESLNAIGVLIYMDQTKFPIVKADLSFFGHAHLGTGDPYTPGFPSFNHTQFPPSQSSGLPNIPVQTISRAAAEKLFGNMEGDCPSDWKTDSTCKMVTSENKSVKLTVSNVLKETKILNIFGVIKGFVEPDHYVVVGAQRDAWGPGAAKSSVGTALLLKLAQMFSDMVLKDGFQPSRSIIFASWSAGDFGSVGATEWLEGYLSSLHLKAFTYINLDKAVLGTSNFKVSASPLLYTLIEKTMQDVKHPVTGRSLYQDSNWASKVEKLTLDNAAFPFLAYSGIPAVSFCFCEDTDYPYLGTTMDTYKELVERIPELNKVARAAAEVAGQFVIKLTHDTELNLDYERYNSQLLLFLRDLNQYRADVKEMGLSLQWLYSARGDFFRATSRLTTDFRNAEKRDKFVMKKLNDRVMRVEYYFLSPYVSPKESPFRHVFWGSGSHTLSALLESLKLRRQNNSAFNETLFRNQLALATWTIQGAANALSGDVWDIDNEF
recombinant mouse CD71, sequence (Q62351 89-763 limits assumed): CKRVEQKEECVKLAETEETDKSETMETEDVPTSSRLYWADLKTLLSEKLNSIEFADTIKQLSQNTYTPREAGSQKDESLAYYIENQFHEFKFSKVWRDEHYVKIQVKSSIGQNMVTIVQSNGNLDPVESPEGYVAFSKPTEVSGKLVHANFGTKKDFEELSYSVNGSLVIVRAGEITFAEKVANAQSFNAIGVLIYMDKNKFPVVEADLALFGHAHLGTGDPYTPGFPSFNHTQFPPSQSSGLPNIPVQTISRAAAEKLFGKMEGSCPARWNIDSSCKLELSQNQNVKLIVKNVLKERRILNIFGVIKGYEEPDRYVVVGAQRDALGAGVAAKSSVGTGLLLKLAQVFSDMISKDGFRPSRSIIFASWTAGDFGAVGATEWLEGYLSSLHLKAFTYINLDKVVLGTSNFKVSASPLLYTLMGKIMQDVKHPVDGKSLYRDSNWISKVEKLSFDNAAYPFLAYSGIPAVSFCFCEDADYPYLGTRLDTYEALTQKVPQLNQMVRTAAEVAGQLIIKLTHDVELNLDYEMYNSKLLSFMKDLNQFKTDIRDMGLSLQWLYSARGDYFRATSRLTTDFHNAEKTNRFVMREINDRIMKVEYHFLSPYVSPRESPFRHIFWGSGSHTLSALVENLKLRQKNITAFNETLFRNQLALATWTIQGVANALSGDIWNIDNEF

B1: Ab21.12 LcB:HcC (antibody, human IgG1, kappa)
heavy: not shown
light: DIQMTQSPSSLSASVGDRVTITCSASSSVYYMYWFQQKPGKAPKLWIYSTSNLASGVPSRFSGSGSGTDYTLTISSMQPEDFATYYCQQRRNYPYTFGQGTKLEIKRTVAAPSVFIFPPSDEQLKSGTASVVCLLNNFYPREAKVQWKVDNALQSGNSQESVTEQDSKDSTYSLSSTLTLSKADYEKHKVYACEVTHQGLSSPVTKSFNRGEC
As to B1, the Kd worked out at 390 pM in assay [1]; 840 pM in assay [2]; 1030 pM in assay [3]; 255 pM in assay [4]; 510 pM in assay [5]; 1530 pM in [6]. For the same molecule, the Kd is about 3000 pM in [8]; 441 pM in [9]; about 3000 pM in assay [10]; 810 pM in assay [11]; 4470 pM in [12]; 5000 pM in [13]. For the same molecule, the dissociation constant Kd in assay [14] was 300 pM; in [15], 898 pM; in assay [16], 140 pM; in assay [17] it was 162 pM. In addition, the “Bmax (MFI)” value in assay [6] was 1820 MFI. Moreover, the binding result in assay [7] is “no binding”.
